# Assays:
# [1] = target: human BAFF-R (B cell-activating factor receptor) expressed on cells (human) (UniProt Q96RJ3); assay: cell-based or functional assay
# [2] = target: human BAFF-R (B cell-activating factor receptor) expressed on cells (human) (UniProt Q96RJ3); assay: BAFF-biotin blocking, flow cytometry, hBAFF-R CHO cells; competitor BAFF-biotin
# [3] = target: poly-specificity reagent (PSR): detergent solubilized CHO cell membrane proteins; assay: flow cytometry PSR assay: test article captured on protein A beads, biotinylated PSR detected with streptavidin-PE, anti-human Fc for expression; control panel without PSR (FIG. 71D) prints Q2 0.019
# [4] = target: poly-specificity reagent (PSR): detergent solubilized CHO cell membrane proteins; assay: flow cytometry PSR assay: test article on Protein A coated beads, biotinylated PSR, read-out with SA-PE
# [5] = target: poly-specificity reagent (PSR): detergent solubilized CHO cell membrane proteins; assay: PSR assay: molecule on protein A beads, biotinylated PSR, SA-PE read out by flow cytometry; + PSR panel
# [6] = target: poly-specificity reagent (PSR): detergent solubilized CHO cell membrane proteins; assay: flow cytometry PSR assay: test article captured on protein A beads, biotinylated PSR detected with streptavidin-PE, anti-human Fc for expression; control panel without PSR (FIG. 71C) prints Q2 0.020
substance,measurement,setting,value
F3′ isotype control (F3′-palivizumab) (bispecific antibody),"KHYG-1-CD16a cytotoxicity on BJAB cells, Max killing (%)",[1],48%
Human IgG1k (antibody),Minimum (MFI),[2],68000 MFI
Ixekizumab (PSR positive control) (antibody),"events in quadrant Q2 (Expression-FITC positive, Binding-PE positive), + PSR",[3],79.6%
Ixekizumab (antibody),"percent of events in Q2 (Expression-FITC positive, Binding-PE positive), + PSR",[4],79.6%
Ixekuzumab (antibody),% of events in quadrant Q2 (PSR binding+),[5],27.1%
Rituximab (antibody),"percent of events in Q2 (Expression-FITC positive, Binding-PE positive), + PSR",[4],56.2%
trastuzumab (antibody),"events in quadrant Q2 (Expression-FITC positive, Binding-PE positive), + PSR",[6],0.067%
same,"percent of events in Q2 (Expression-FITC positive, Binding-PE positive), + PSR",[4],0.087%
